The supplement of paper PMC6755084

B1: minF1; a variant is named by its letters at N, in order (parent)
chain: GAGACCGCAACTGAAAAGTTGTTNNNNAANNNNNGGNTNAATTTCTGCACGTAGAAGCAAAAGGC

Variants of: B1
Test: fraction ligated after 30 min (ligated reads / total reads); higher = more ligase activity
Conditions: with F1*subA RNA substrate (template-directed ligation), 42 °C
Procedure, shortened: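 Fraction ligated for every variant was calculated as the share of total reads that came from ligated RNA. Minimized ligase ribozyme variants were made from oligo-pool templates by PCR amplification, T7 transcription and gel purification. After gel separation of ligated and unligated RNAs, reverse transcription with barcoded primers and MiSeq sequencing followed. Only core bases at quality ≥30 passed filtering.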

Row | Variant | fraction ligated
1 | ACGATGGTGTG | 0.00555
2 | ATCAAATGAGT A28G G35T | 0.00393
3 | ATCGTGGAGTG | 0.00282
4 | ATAGGGATGTG A29T | 0.0314
5 | ATAATGGATGT | 0.00257
6 | ATCGTGGATGT A40G | 0.0919
7 | ATCGATGGAGT G35T | 0.0345
8 | ATCGATGGAGT | 0.00434
9 | ATCAATGAGTG A28G | 0.00195
10 | ATAGATGGAGT A40G | 0.00598
11 | ATCAAGGATGT A28G A40G | 0.0268
12 | ATCAAATGGGT A28G G35T A40G | 0.00694
13 | ATCAGGATGTG A29T | 0.0416
14 | ATCAATGGAGT A40G | 0.00544
15 | ATCGATGATTG | 0.00246
16 | ATCGATGGATG | 0.00346
17 | ATCAAAGGTGT A28G A40G | 0.00781
18 | ATAGAGGATTG | 0.00226
19 | ATAGATGGGTG | 0.00409
20 | ATCGATATGTG | 0.00384
21 | AGAAGGATGTG A29T | 0.00349
22 | ATCAAAGATGT A28G | 0.00546
23 | ATAGTGATGTG | 0.00472
24 | ATCAAATATGT A28G A40G | 0.00354

Row | Variant | fraction ligated
25 | ATCATGGATTG | 0.00725
26 | ATCAAGGTGTG | 0.00569
27 | ATCAAATGTGT A28G A40G | 0.00666
28 | ATCAATGGAGT G35T A40G | 0.0379
29 | ATCAAATGAGT A28G G35T A40G | 0.0046
30 | ATCGAGGATGT | 0.004
31 | ATCAAGGATGT A28G | 0.00393
32 | ATAGAGGATGT | 0.00209
33 | ATCAAAGGAGT A28G | 0.00277
34 | ATCGGGATGTG A29T | 0.045
35 | ATCAATGGAGT G35T | 0.0137
36 | ATCAATGGAGT A28G G35T A40G | 0.0474
37 | ATGATGGAGTG | 0.00146
38 | ATCAATGGAGT A28G | 0.00328
39 | ATCGATGGAGT G35T T38G A40T A41G | 0.00105
40 | TGAAGGATGTG A29T | 0.00393
41 | ATCAATGATGT A40G | 0.0188
42 | ATAGTGGATGT | 0.0055
43 | ATCGAGATGTG | 0.00673
44 | ATCAAATGGGT A28G A40G | 0.00524
45 | ATCAAATGGGT A28G G35A A40G | 0.00585
46 | ATAAGGATGTG | 0.00241
47 | ATCAAATGAGT A28G G35T T38G A40T | 0.00229
48 | CGAAGGATGTG T23A A29T | 0.00782

Row | Variant | fraction ligated
49 | ATCAATGGTGT A40G | 0.00841
50 | ATCATGGATGT A40G | 0.0479
51 | ATGATGGATGT | 0.00269
52 | ATCGATGGTTG | 0.00328
53 | ATAGATGTGTG | 0.00472
54 | ATAATGGTGTG | 0.00284
55 | ATCAATGTGTG | 0.0057
56 | TCGATGGTGTG T23A | 0.00501
57 | ATGATGGATTG | 0.0074
58 | ATCAAAGTGTG A28G | 0.00347
59 | ATAGAGGTGTG | 0.00246
60 | ATCAAATGTTG A28G | 0.00332
61 | ATCATGGAGTG A28G | 0.00478
62 | ATCAAGGATGT | 0.00413
63 | ATCAATGGAGT G35T T38G A40T | 0.00324
64 | ATCAAAGAGTG A28G | 0.00276
65 | ATCAAATGGGT A28G | 0.00311
66 | ATCGATGGAGT A40G | 0.00946
67 | ATAGTGGATTG | 0.00612
68 | ATAGAGGAGTG | 0.00165
69 | ATCAATATGTG A28G | 0.00244
70 | ATCAATGGAGT A28G G35T | 0.0192
71 | ATAGAGATGTG | 0.00202
72 | ATCAAAGGAGT A28G G35T A40G | 0.00529

Row | Variant | fraction ligated
73 | ATCAAATAGTG A28G | 0.00491
74 | ATCAATATGTG | 0.00461
75 | ATCAGGATGTG A28G | 0.00911
76 | ATAATGGATGT A40G | 0.0127
77 | ATCGATGTGTG | 0.00321
78 | ATCATGGATGT A28G A40G | 0.0551
79 | ATCAAAATGTG A28G | 0.00354
80 | ATCGAGGATGT A40G | 0.0171
81 | ATCAAAGGAGT A28G G35T T38G A40T | 0.00242
82 | ATCAATGAGTG | 0.003
83 | ATCAAAGGAGT A28G G35T | 0.00323
84 | ATCAAATGGGT A28G G35A | 0.00387
85 | ATCAAATGGGT A28G G35T | 0.00148
86 | ATCAAAGATGT A28G A40G | 0.0398
87 | ATCGGGATGTG | 0.00497
88 | ATCAAGGATTG | 0.00347
89 | ATCAATGGAGT | 0.00569
90 | ATCAAATGAGT A28G | 0.00227
91 | ATCGATGAGTG | 0.00373
92 | ATCAATGATGT A28G A40G | 0.0266
93 | ATAGATGATGT | 0.000906
94 | ATCAAAGATTG A28G | 0.00113
95 | ATCAATGGTGT | 0.00377
96 | ATCAAGGTGTG A28G | 0.00322

Row | Variant | fraction ligated
97 | ATCGATGGGTG | 0
98 | ATGATGATGTG | 0.00356
99 | ATAGGGATGTG | 0.00301
100 | ATCGATGGAGT G35T A40G | 0.0726
101 | ATCGATGATGT | 0.00439
102 | ATCAAGATGTG | 0.00503
103 | ATCAAAGGATG A28G | 0.0078
104 | ATCAAATGAGT A28G A40G | 0.00391
105 | ATCATGGTGTG | 0.00812
106 | ATAAGGATGTG A29T | 0.0199
107 | ATCAATGGAGT A28G G35T T38G A40T | 0.00109
108 | ATCATGGATGT A28G | 0.00453
109 | ATCAAGGAGTG A28G | 0.00604
110 | ATCAATGGTTG | 0.00416
111 | ATCAAATTGTG A28G | 0.00273
112 | ATAGTGGATGT A40G | 0.0158
113 | ATCGTGGATGT | 0.00561
114 | ATCGTGATGTG | 0.00711
115 | ATCAATGGTGT A28G A40G | 0.00763
116 | ATCAATGGTGT A28G | 0.00146
117 | ATCAAATATTG A28G | 0.00289
118 | ATCATGATGTG A28G | 0.00487
119 | ATAATGGAGTG | 0.00187
120 | ATCAATGGATG | 0.00435

Row | Variant | fraction ligated
121 | ATAATGGATTG | 0.00677
122 | ATGAGGATGTG A29T | 0.0247
123 | ATCAAAGGAGT A28G A40G | 0.00414
124 | ATCGTGGTGTG | 0.00665
125 | ATCGAGGATTG | 0.00198
126 | ATCAAGGAGTG | 0.00266
127 | ATCAAGATGTG A28G | 0.00558
128 | ATAGATGGTGT | 0.00303
129 | ATAGATATGTG | 0.00482
130 | ATAGATGGAGT G35T T38G A40T A41G | 0.00159
131 | ATAGATGATTG | 0.00301
132 | ATAGATGGAGT G35T A40G | 0.0113
133 | ATCAAAGGGTG A28G | 0.0042
134 | ATCATGGATTG A28G | 0.00743
135 | ATCAAATGGGT A28G G35A T38G A40T | 0.000933
136 | AGAAGGATGTG T23A A29T | 0.00429
137 | ATCAATGGAGT G35T T38G A40T A41G | 0.00079
138 | ATCAAATGATG A28G | 0.00241
139 | ATAGAGGATGT A40G | 0.00594
140 | ATCGAGGAGTG | 0.00378
141 | ATCAATGATGT | 0.00391
142 | ATAATGATGTG | 0.00474
143 | ATAGTGGAGTG | 0
144 | ATCAATGGTTG A28G | 0.00263

Row | Variant | fraction ligated
145 | ATCAAAGGTGT A28G | 0.00198
146 | ATGATGGTGTG | 0.00304
147 | ATAGATGGAGT G35T | 0.00557
148 | ATCAAAGGTTG A28G | 0.0026
149 | ATCAAGGATGT A40G | 0.0124
150 | ATCGATGGTGT | 0.00463
151 | ATAGATGATGT A40G | 0.00341
152 | ATCATGATGTG | 0.00541
153 | ATCGATGATGT A40G | 0.0304
154 | ATCAATGATTG A28G | 0.00338
155 | TGAAGGATGTG T23A A29T | 0.00369
156 | TCGATGGTGTG | 0.00336
157 | ATCAATGTGTG A28G | 0.00293
158 | ATCGAGGTGTG | 0.00503
159 | ATCAAGGATTG A28G | 0.00187
160 | ATCAATGATGT A28G | 0.00479
161 | ATCAGGATGTG A28G A29T | 0.00511
162 | ATAGATGGTGT A40G | 0.00815
163 | ATCATGGATGT | 0.00625
164 | ATCATGGAGTG | 0.00635
165 | ATCATGGTGTG A28G | 0.00296
166 | ATCAAATGGTG A28G | 0.00482
167 | ATCGTGGATTG | 0.0062
168 | ATAGATGGAGT G35T T38G A40T | 0.000429

Row | Variant | fraction ligated
169 | ATCGATGGTGT A40G | 0.0134
170 | ATCAATGGAGT A28G G35T T38G A40T A41G | 0.00208
171 | ATAGTGGTGTG | 0.0019
172 | ATCAATGGAGT A28G A40G | 0.00701
173 | ATCAGGATGTG | 0.00723
174 | AGAAGGATGTG T23C A29T | 0.0071
175 | CGAAGGATGTG A29T | 0.0086
176 | ATGAGGATGTG | 0.00387
177 | ATCAAAGGAGT A28G G35T T38G A40T A41G | 0.00104
178 | ATCAAATATGT A28G | 0.00373
179 | ATCAATGGATG A28G | 0.00279
180 | ATGATGGATGT A40G | 0.0235
181 | ATAGATGAGTG | 0.00181
182 | ATAGATGGAGT | 0.00474
183 | ATCAATGATTG | 0.00237
184 | ATAGATGGATG | 0.00358
185 | ATCAATGGGTG | 0.0045
186 | ATAGATGGTTG | 0.00545
187 | ATCGATGGAGT G35T T38G A40T | 0.0031
188 | ATCAAATGTGT A28G | 0.00203
189 | ATCAAATGGGT A28G G35T T38G A40T | 0.00125
190 | ATCAATGGGTG A28G | 0.00605
